From IntAct's records for PubMed 24997600

B1: Regulation of nuclear pre-mRNA domain-containing protein 1B (Homo sapiens), Q9NQG5 (parent)
chain: MSSFSESALEKKLSELSNSQQSVQTLSLWLIHHRKHAGPIVSVWHRELRKAKSNRKLTFLYLANDVIQNSKRKGPEFTREFESVLVDAFSHVAREADEGCKKPLERLLNIWQERSVYGGEFIQQLKLSMEDSKSPPPKATEEKKSLKRTFQQIQEEEDDDYPGSYSPQDPSAGPLLTEELIKALQDLENAASGDATVRQKIASLPQEVQDVSLLEKITDKEAAERLSKTVDEACLLLAEYNGRLAAELEDRRQLARMLVEYTQNQKDVLSEKEKKLEEYKQKLARVTQVRKELKSHIQSLPDLSLLPNVTGGLAPLPSAGDLFSTD

Variants of: B1
Settings: with rpb1_human POLR2A

effect of a mutation on the interaction | Variant
disrupting interaction strength | R114A
